The text below walks through data of US20260102485A1 (CEDARS SINAI MEDICAL CENTER, published 2026).

Positions count from the first letter of the chain named.

One may read the Kd as the constant that tells how readily two partners part at equilibrium. The low end stands for a tighter complex, the high end for a looser complex. As a reminder, the koff is the first-order rate constant of dissociation. One may read the kon as a measure of how fast the partners come together.

First the molecules themselves.
T1: human TL1A (hTL1A) antigen (human, UniProt O95150 58-251, limits assumed)
T1 construct: also called TNFSF15
T1 sequence (looked up): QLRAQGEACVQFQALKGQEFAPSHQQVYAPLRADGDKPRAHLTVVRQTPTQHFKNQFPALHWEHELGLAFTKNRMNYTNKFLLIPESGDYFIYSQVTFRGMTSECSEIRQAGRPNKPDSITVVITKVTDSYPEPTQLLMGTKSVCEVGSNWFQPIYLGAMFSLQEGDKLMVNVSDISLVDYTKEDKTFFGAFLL

T2: murine TL1A (murine, UniProt Q5UBV8 94-252, limits assumed)
T2 sequence (looked up): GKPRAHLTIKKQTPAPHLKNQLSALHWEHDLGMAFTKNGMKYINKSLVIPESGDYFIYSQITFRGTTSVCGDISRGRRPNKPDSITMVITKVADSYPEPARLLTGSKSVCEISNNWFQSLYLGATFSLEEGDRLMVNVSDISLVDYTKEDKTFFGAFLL

B1: 5C3D11 (antibody, V domains shown)
VH: EVQLQQSGAELVKPGASVKLSCTASGFDIQDTYMHWVKQRPEQGLEWIGRIDPASGHTKYDPKFQVKATITTDTSSNTAYLQLSSLTSEDTAVYYCSRSGGLPDVWGAGTTVTVSS
VL: QIVLSQSPAILSASPGEKVTMTCRASSSVSYMYWYQQKPGSSPKPWIYATSNLASGVPDRFSGSGSGTSYSLTISRVEAEDAATYYCQQWSGNPRTFGGGTKLEIK
notes: Mouse hybridoma monoclonal antibody; also called 684842-3; anti-TL1A antibody 5C3D11
B2: 9E12E5 (antibody, V domains shown)
VH: QVHLQQSGPELVKPGASVKLSCKASGYTFTKYDINWVRQRPEQGLEWIGWIFPGDGRTDYNEKFKGKATLTTDKSSSTAYMEVSRLTSEDSAVYFCARYGPAMDYWGQGTSVTVAS
VL: DVLMTQTPLSLPVSLGDQASISCRSSQTIVHSNGDTYLDWFLQKPGQSPKLLIYKVSNRFSGVPDRFSGSGSGTDFTLKISRVEAEDLGVYYCFQGSHVPYTFGGGTKLEIK
notes: Mouse hybridoma monoclonal antibody; also called 684842-6; anti-TL1A antibody 9E12E5
B3: AS12824 (antibody, V domains shown)
VH: QVQLVQSGAEVKKPGASVKVSCKASGFDICDTYMHWVKQRPGQGLEWIGRIDPASGHTKYDPKFQVRATITTDTSTSTAYLELSSLRSEDTAVYYCARSGGLPDVWGQGTTVTVSS
VL: EIVLTQSPGTLSASPGERATMSCRASSSVSYMYWYQQKPGQAPRPWIYATSNLASGVPDRFSGSGSGTDYTLTISRVEPEDFAVYYCQQWSGNPRTFGGGTKLEIK
notes: Humanized 5C3D11 clone from a phage display library; also called 15
B4: AS12823 (antibody, V domains shown)
VH: B3 VH with V20L, K38R, I70M, A79V
VL: B3 VL with A13L, V57I, Y70F
notes: Humanized 5C3D11 clone from a phage display library; also called 14
B5: AS12825 (antibody, V domains shown)
VH: B3 VH with R40A, I48M, I70M, A97S
VL: B3 VL with A19V, P45L, W46L, Y70F
notes: Humanized 5C3D11 clone from a phage display library; also called 16
B6: AS12819 (antibody, V domains shown)
VH: B3 VH with K12V, V20L, K38R, I48M, A68V, I70M, A79V
VL: B3 VL with A13L, A19V, Y70F, L103V
notes: Humanized 5C3D11 clone from a phage display library; also called 10
B7: AS12816 (antibody, V domains shown)
VH: B3 VH with T72R, A97S
VL: B3 VL with A19V, M21L, Y70F, V77L
notes: Humanized 5C3D11 clone from a phage display library

In the first test the target is T1, human TL1A (hTL1A) antigen. The experiment in a line: Biacore (SPR), TL1A as analyte. In general terms: SPR reads the build-up and loss of mass on a sensor chip optically.
B1 had a Kd of 0.079 nM.
In turn, B2 registered a Kd of 0.52 nM.

The target in a further test is T1, human TL1A (hTL1A) antigen. Put plainly: SPR, affinity ranking, clone as ligand.
In turn, B3 had a Kd of 0.0163 nM, a koff of 1.69e-05 s⁻¹ and a kon of 1.03e+06 M⁻¹ s⁻¹.
The matching figures for B4: 0.0424 nM, 3.66e-05 s⁻¹ and 864000 M⁻¹ s⁻¹.
In turn, B5 came in with a Kd of 0.105 nM, a koff of 5.45e-05 s⁻¹ and a kon of 518000 M⁻¹ s⁻¹.
For the molecule B6, binding was characterised by a dissociation constant (Kd) of 0.0462 nM, the koff was 3.81e-05 s⁻¹ and the kon turned out to be 825000 M⁻¹ s⁻¹.
In the case of B7, the Kd came out at 0.062 nM, the off-rate (koff) worked out at 4.73e-05 s⁻¹ and the kon was found to be 763000 M⁻¹ s⁻¹.

Another test concerns the target T1, human TL1A (hTL1A) antigen. The experiment in a line: cell-based or functional assay.
Turning to B2, the “EC50, inhibition of human TL1A induced IFN-γ production (percent of IFN-γ production without inhibitor)” value is 2.4 nM.

For a further test, the target named is T2, murine TL1A. Put plainly: MSD electrochemiluminescence plate assay, antibody titrated on plates coated with murine TL1A. As to the method:
Anti-human TL1A monoclonal antibodies 9E12E5 and 5C3D11 neutralize the activity of human TL1A in vitro. […] MSD plates were coated with murine TL1A and incubated with various concentrations of 5C3D11 or 9E12E5 to evaluate the ability of the antibody to recognize murine TL1A, as shown in FIG. 6. Human TL1A was included as a positive control. 5C3D11 recognizes murine TL1A in a concentration dependent manner. The binding profile of both the 5C3D11 and 9E12E5 antibodies were assessed using a TL1A transfected HEK293 cell line and compared to the untransfected parental HEK293 cell line. Fluorescent staining of the anti-TL1A antibodies in TL1A expressing HEK293 cells is compared to the untransfected parental HEK293 cells, as shown in FIG. 7.
Regarding B2, the binding result is recorded as “no binding (tested: 100 ng/ml)”.

The next test has as its target T1, human TL1A (hTL1A) antigen. Put plainly: SPR, multi-cycle, antibody as ligand, TL1A analyte.
For the molecule B3, the kon amounted to 1.07e+06 M⁻¹ s⁻¹.
B4: the kon stood at 1.11e+06 M⁻¹ s⁻¹.
For the molecule B6, the kon was 946000 M⁻¹ s⁻¹.
In turn, B7 displayed a kon of 819000 M⁻¹ s⁻¹.

A further test addresses T1, human TL1A (hTL1A) antigen. The experiment in a line: cell-based or functional assay. This is another data set of the same source.
Turning to B1, the “EC50, inhibition of human TL1A induced IFN-γ production (percent of IFN-γ production without inhibitor)” value turned out to be 1 nM.
